In US20100166746A1 (published 2010):

Molecular target: T1, human EphA2 antigen (human, UniProt P29317 24-534, limits assumed)
T1 construct: also called human EphA2 tumor antigen
Test: kinetic parameters, ratio to G5 reference

T1 sequence (P29317 24-534 limits assumed): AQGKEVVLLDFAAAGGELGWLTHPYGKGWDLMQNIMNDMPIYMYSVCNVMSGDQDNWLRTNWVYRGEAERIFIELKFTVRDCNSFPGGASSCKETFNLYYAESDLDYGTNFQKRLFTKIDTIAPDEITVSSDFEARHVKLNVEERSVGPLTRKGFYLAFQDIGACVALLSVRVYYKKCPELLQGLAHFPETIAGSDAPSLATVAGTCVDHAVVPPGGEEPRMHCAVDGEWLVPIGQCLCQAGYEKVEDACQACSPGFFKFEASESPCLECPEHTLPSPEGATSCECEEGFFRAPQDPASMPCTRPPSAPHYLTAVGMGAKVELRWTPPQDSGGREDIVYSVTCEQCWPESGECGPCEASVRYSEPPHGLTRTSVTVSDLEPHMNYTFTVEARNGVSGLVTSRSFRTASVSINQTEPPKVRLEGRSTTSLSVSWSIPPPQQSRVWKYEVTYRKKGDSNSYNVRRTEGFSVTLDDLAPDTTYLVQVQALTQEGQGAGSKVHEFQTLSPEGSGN

- fold faster Koff as compared to G5: ~3 fold
- fold faster Kon as compared to G5: ~3.5 fold
B1: 3F2 anti-EphA2 antibody (antibody, V domains shown)
VH: EVQLVESGGGVVRPGGSLRLSCAASGFTVSDYSMNWVRQAPGKGLEWIGFIRNKANAYTTEYSASVKGRFTISRDDSKNTLYLQMNSLKTEDTAVYYCTTYPRYHAMDSWGQGTMVTVSS
VL: AIQLTQSPSSLSASVGDRVTITCRASQSISNNLHWYLQKPGQSPQLLIYYGFQSISGVPSRFSGSGSGTDFTLTISSLQPEDFATYYCQQANSWPLTFGGGTKLEIK
